In the supplement of paper PMC9112550, “Optimization of the antimicrobial peptide Bac7 by deep mutational scanning” (BMC Biology, 2022):

System: Escherichia coli TOP10
Experiment: shrunken log2 fold change of peptide-encoding DNA abundance (4.5 h post-induction vs induction); higher = less antimicrobial activity (less host growth inhibition)
Settings: time post-induction: 4.5 h; library: site-saturation at positions 5, 18, 19, 20
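Further: peptides expressed intracellularly from a pBAD plasmid library in pooled LB shake-flask culture, induced with 0.3% L-arabinose, DNA abundance read by NGS, three biological replicates, DESeq2 with apeglm shrinkage.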

RRIRERPPRLPRPRPRPVLHPRP and RRIRERPPRLPRPRPRPAKEPRP are within 0.2 log units of each other in “shrunken log2 fold change” value: -0.0594 for the first, 0.0889 for the second.

RRIRKRPPRLPRPRPRPNPYPRP and RRIRQRPPRLPRPRPRPYLVPRP are within 0.2 log units of each other in “shrunken log2 fold change” value: -0.384 for the first, -0.551 for the second.

RRIRPRPPRLPRPRPRPTVQPRP and RRIRPRPPRLPRPRPRPTMSPRP are within 0.2 log units of each other in “shrunken log2 fold change” value: 0.182 for the first, 0.0176 for the second.

First: RRIRGRPPRLPRPRPRPKVDPRP
Second: RRIRNRPPRLPRPRPRPSVGPRP
The “shrunken log2 fold change” value of the first is higher: 3.36 for the first, -0.0175 for the second.

RRIRERPPRLPRPRPRPAFFPRP and RRIRQRPPRLPRPRPRPDGDPRP are within 0.2 log units of each other in “shrunken log2 fold change” value: 0.00883 for the first, -0.0112 for the second.

RRIRSRPPRLPRPRPRPIARPRP and RRIRQRPPRLPRPRPRPFSTPRP are within 0.2 log units of each other in “shrunken log2 fold change” value: 0.029 for the first, 0.0344 for the second.

RRIRQRPPRLPRPRPRPQTMPRP and RRIRFRPPRLPRPRPRPCIHPRP are within 0.2 log units of each other in “shrunken log2 fold change” value: 0.0333 for the first, -0.0499 for the second.

Compared with RRIRIRPPRLPRPRPRPQWIPRP, RRIRQRPPRLPRPRPRPVYSPRP is lower in “shrunken log2 fold change” value: 3.04 for the first, -0.0563 for the second.

First: RRIRTRPPRLPRPRPRPARYPRP
Second: RRIRMRPPRLPRPRPRPKDNPRP
The “shrunken log2 fold change” value of the first is lower: 0.189 for the first, 1.43 for the second.

Compared with RRIRARPPRLPRPRPRPMPNPRP, RRIRDRPPRLPRPRPRPHGCPRP is lower in “shrunken log2 fold change” value: 0.353 for the first, -0.00865 for the second.

RRIRIRPPRLPRPRPRPNTWPRP and RRIRVRPPRLPRPRPRPIFMPRP are within 0.2 log units of each other in “shrunken log2 fold change” value: -0.406 for the first, -0.363 for the second.

Going from RRIRARPPRLPRPRPRPKRLPRP to RRIRCRPPRLPRPRPRPSMWPRP, the “shrunken log2 fold change” value falls from 0.656 to -0.648.

RRIRSRPPRLPRPRPRPQCFPRP and RRIRNRPPRLPRPRPRPCWRPRP are within 0.2 log units of each other in “shrunken log2 fold change” value: -0.282 for the first, -0.174 for the second.

First: RRIRKRPPRLPRPRPRPNNCPRP
Second: RRIRCRPPRLPRPRPRPMMGPRP
The “shrunken log2 fold change” value of the first is lower: -0.256 for the first, 0.0355 for the second.

Going from RRIRGRPPRLPRPRPRPPQRPRP to RRIRDRPPRLPRPRPRPRFYPRP, the “shrunken log2 fold change” value falls from 0.97 to 0.386.

Compared with RRIRPRPPRLPRPRPRPADLPRP, RRIRGRPPRLPRPRPRPRMVPRP is higher in “shrunken log2 fold change” value: 0.0166 for the first, 0.643 for the second.

RRIRPRPPRLPRPRPRPSNFPRP and RRIRLRPPRLPRPRPRPPICPRP are within 0.2 log units of each other in “shrunken log2 fold change” value: -0.168 for the first, -0.0611 for the second.

Going from RRIRYRPPRLPRPRPRPYPDPRP to RRIRLRPPRLPRPRPRPHPPPRP, the “shrunken log2 fold change” value rises from -0.0152 to 1.

RRIRERPPRLPRPRPRPDMKPRP and RRIRQRPPRLPRPRPRPRKEPRP are within 0.2 log units of each other in “shrunken log2 fold change” value: 0.0475 for the first, -0.0194 for the second.

First: RRIRPRPPRLPRPRPRPWVSPRP
Second: RRIRWRPPRLPRPRPRPFYMPRP
The “shrunken log2 fold change” value of the first is higher: 0.0233 for the first, -0.297 for the second.

Compared with RRIRLRPPRLPRPRPRPITWPRP, RRIRKRPPRLPRPRPRPEAQPRP is higher in “shrunken log2 fold change” value: -0.543 for the first, 0.29 for the second.

RRIRTRPPRLPRPRPRPCQEPRP and RRIRARPPRLPRPRPRPYMDPRP are within 0.2 log units of each other in “shrunken log2 fold change” value: -0.0218 for the first, -0.0602 for the second.

RRIRSRPPRLPRPRPRPDSGPRP and RRIRYRPPRLPRPRPRPWRAPRP are within 0.2 log units of each other in “shrunken log2 fold change” value: -0.02 for the first, -0.142 for the second.

First: RRIRSRPPRLPRPRPRPWALPRP
Second: RRIRVRPPRLPRPRPRPPDWPRP
The “shrunken log2 fold change” value of the first is lower: -0.0699 for the first, 0.46 for the second.

Going from RRIRHRPPRLPRPRPRPVPSPRP to RRIRMRPPRLPRPRPRPQRTPRP, the “shrunken log2 fold change” value rises from 0.0513 to 1.56.

Compared with RRIRMRPPRLPRPRPRPSTLPRP, RRIRKRPPRLPRPRPRPPIAPRP is higher in “shrunken log2 fold change” value: -0.239 for the first, 0.464 for the second.

RRIRGRPPRLPRPRPRPSVGPRP and RRIRGRPPRLPRPRPRPVFCPRP are within 0.2 log units of each other in “shrunken log2 fold change” value: 0.333 for the first, 0.206 for the second.

Going from RRIRMRPPRLPRPRPRPTTLPRP to RRIRVRPPRLPRPRPRPFSHPRP, the “shrunken log2 fold change” value falls from 0.34 to -0.358.

RRIRMRPPRLPRPRPRPNRFPRP and RRIRLRPPRLPRPRPRPECLPRP are within 0.2 log units of each other in “shrunken log2 fold change” value: -0.0257 for the first, -0.00237 for the second.

RRIRTRPPRLPRPRPRPHQMPRP and RRIRDRPPRLPRPRPRPTKNPRP are within 0.2 log units of each other in “shrunken log2 fold change” value: 0.0521 for the first, 0.0799 for the second.

First: RRIRKRPPRLPRPRPRPVEGPRP
Second: RRIRWRPPRLPRPRPRPKDWPRP
The “shrunken log2 fold change” value of the first is lower: -0.006 for the first, 0.246 for the second.

First: RRIRMRPPRLPRPRPRPLFGPRP
Second: RRIRLRPPRLPRPRPRPAYRPRP
The “shrunken log2 fold change” value of the first is higher: 0.232 for the first, -0.0396 for the second.

Compared with RRIRKRPPRLPRPRPRPLPRPRP, RRIRLRPPRLPRPRPRPSYMPRP is lower in “shrunken log2 fold change” value: 1.08 for the first, -0.802 for the second.

RRIRCRPPRLPRPRPRPQWPPRP and RRIRCRPPRLPRPRPRPPDSPRP are within 0.2 log units of each other in “shrunken log2 fold change” value: 0.0205 for the first, -0.0091 for the second.

Going from RRIRMRPPRLPRPRPRPCTKPRP to RRIRCRPPRLPRPRPRPITNPRP, the “shrunken log2 fold change” value falls from 2.28 to -0.449.

RRIRLRPPRLPRPRPRPYKGPRP and RRIRDRPPRLPRPRPRPCALPRP are within 0.2 log units of each other in “shrunken log2 fold change” value: -0.027 for the first, -0.0616 for the second.

Compared with RRIRPRPPRLPRPRPRPQWNPRP, RRIRNRPPRLPRPRPRPVMVPRP is lower in “shrunken log2 fold change” value: 0.36 for the first, -0.0209 for the second.

First: RRIRDRPPRLPRPRPRPAQNPRP
Second: RRIRNRPPRLPRPRPRPAQFPRP
The “shrunken log2 fold change” value of the first is higher: 0.308 for the first, 0.0855 for the second.

First: RRIRYRPPRLPRPRPRPGMEPRP
Second: RRIRERPPRLPRPRPRPLRWPRP
The “shrunken log2 fold change” value of the first is lower: -0.0379 for the first, 0.459 for the second.

First: RRIRSRPPRLPRPRPRPTPTPRP
Second: RRIRVRPPRLPRPRPRPIQTPRP
The “shrunken log2 fold change” value of the first is higher: 0.676 for the first, -0.0164 for the second.

RRIRSRPPRLPRPRPRPCPNPRP and RRIRCRPPRLPRPRPRPRVPPRP are within 0.2 log units of each other in “shrunken log2 fold change” value: -0.209 for the first, -0.0115 for the second.

Going from RRIRVRPPRLPRPRPRPHKRPRP to RRIRFRPPRLPRPRPRPKYVPRP, the “shrunken log2 fold change” value falls from 0.06 to -0.594.

Going from RRIRKRPPRLPRPRPRPPQPPRP to RRIRTRPPRLPRPRPRPSMPPRP, the “shrunken log2 fold change” value falls from 0.856 to -0.363.

RRIRHRPPRLPRPRPRPFQTPRP and RRIRARPPRLPRPRPRPDDGPRP are within 0.2 log units of each other in “shrunken log2 fold change” value: -0.183 for the first, -0.078 for the second.

First: RRIRIRPPRLPRPRPRPHNMPRP
Second: RRIRPRPPRLPRPRPRPGALPRP
The “shrunken log2 fold change” value of the first is lower: -0.898 for the first, 0.243 for the second.

RRIRIRPPRLPRPRPRPQWVPRP and RRIRIRPPRLPRPRPRPQFAPRP are within 0.2 log units of each other in “shrunken log2 fold change” value: -0.023 for the first, -0.0319 for the second.

First: RRIRPRPPRLPRPRPRPSILPRP
Second: RRIRRRPPRLPRPRPRPNYIPRP
The “shrunken log2 fold change” value of the first is higher: -0.0331 for the first, -0.237 for the second.

Going from RRIRERPPRLPRPRPRPVKFPRP to RRIRARPPRLPRPRPRPHKVPRP, the “shrunken log2 fold change” value rises from -0.02 to 0.31.

RRIRCRPPRLPRPRPRPIQEPRP and RRIRHRPPRLPRPRPRPDCGPRP are within 0.2 log units of each other in “shrunken log2 fold change” value: 0.0221 for the first, -0.131 for the second.

Compared with RRIRCRPPRLPRPRPRPKFLPRP, RRIRDRPPRLPRPRPRPMWWPRP is higher in “shrunken log2 fold change” value: -0.258 for the first, -0.0122 for the second.

RRIRPRPPRLPRPRPRPVKYPRP and RRIRYRPPRLPRPRPRPSDHPRP are within 0.2 log units of each other in “shrunken log2 fold change” value: -0.303 for the first, -0.42 for the second.

Going from RRIRHRPPRLPRPRPRPFVRPRP to RRIRNRPPRLPRPRPRPPPCPRP, the “shrunken log2 fold change” value rises from -0.073 to 0.756.

RRIRCRPPRLPRPRPRPQPHPRP and RRIRVRPPRLPRPRPRPHCEPRP are within 0.2 log units of each other in “shrunken log2 fold change” value: 0.067 for the first, -0.0141 for the second.

Going from RRIRLRPPRLPRPRPRPDNCPRP to RRIRRRPPRLPRPRPRPLQWPRP, the “shrunken log2 fold change” value rises from -0.0891 to 0.292.

In the case of RRIRSRPPRLPRPRPRPGIHPRP, the “shrunken log2 fold change” value is reported as 0.115.
